B1: Importin-13 (Homo sapiens), O94829 (parent)
chain: MERREEQPGAAGAGAAPALDFTVENVEKALHQLYYDPNIENKNLAQKWLMQAQVSPQAWHFSWQLLQPDKVPEIQYFGASALHIKISRYWSDIPTDQYESLKAQLFTQITRFASGSKIVLTRLCVALASLALSMMPDAWPCAVADMVRLFQAEDSPVDGQGRCLALLELLTVLPEEFQTSRLPQYRKGLVRTSLAVECGAVFPLLEQLLQQPSSPSCVRQKVLKCFSSWVQLEVPLQDCEALIQAAFAALQDSELFDSSVEAIVNAISQPDAQRYVNTLLKLIPLVLGLQEQLRQAVQNGDMETSHGICRIAVALGENHSRALLDQVEHWQSFLALVNMIMFCTGIPGHYPVNETTSSLTLTFWYTLQDDILSFEAEKQAVYQQVYRPVYFQLVDVLLHKAQFPSDEEYGFWSSDEKEQFRIYRVDISDTLMYVYEMLGAELLSNLYDKLGRLLTSSEEPYSWQHTEALLYGFQSIAETIDVNYSDVVPGLIGLIPRISISNVQLADTVMFTIGALSEWLADHPVMINSVLPLVLHALGNPELSVSSVSTLKKICRECKYDLPPYAANIVAVSQDVLMKQIHKTSQCMWLMQALGFLLSALQVEEILKNLHSLISPYIQQLEKLAEEIPNPSNKLAIVHILGLLSNLFTTLDISHHEDDHEGPELRKLPVPQGPNPVVVVLQQVFQLIQKVLSKWLNDAQVVEAVCAIFEKSVKTLLDDFAPMVPQLCEMLGRMYSTIPQASALDLTRQLVHIFAHEPAHFPPIEALFLLVTSVTLTLFQQGPRDHPDIVDSFMQLLAQALKRKPDLFLCERLDVKAVFQCAVLALKFPEAPTVKASCGFFTELLPRCGEVESVGKVVQEDGRMLLIAVLEAIGGQASRSLMDCFADILFALNKHCFSLLSMWIKEALQPPGFPSARLSPEQKDTFSQQILRERVNKRRVKEMVKEFTLLCRGLHGTDYTADY

Variants of: B1
Conditions: with mgn_human MAGOH

Variant | effect of a mutation on the interaction
R803E | disrupting interaction
K802E | disrupting interaction

Reference: IntAct's records for PubMed 21139563
